Measured values as given in publication PMC2700392 (The Journal of Cell Biology, 2009).

Target: Nup170p (recombinant, released from GST by thrombin) (S. cerevisiae, UniProt P38181 1-1502)
Experiment: pull-down

Nup170p (recombinant, released from GST by thrombin), sequence (P38181 whole entry): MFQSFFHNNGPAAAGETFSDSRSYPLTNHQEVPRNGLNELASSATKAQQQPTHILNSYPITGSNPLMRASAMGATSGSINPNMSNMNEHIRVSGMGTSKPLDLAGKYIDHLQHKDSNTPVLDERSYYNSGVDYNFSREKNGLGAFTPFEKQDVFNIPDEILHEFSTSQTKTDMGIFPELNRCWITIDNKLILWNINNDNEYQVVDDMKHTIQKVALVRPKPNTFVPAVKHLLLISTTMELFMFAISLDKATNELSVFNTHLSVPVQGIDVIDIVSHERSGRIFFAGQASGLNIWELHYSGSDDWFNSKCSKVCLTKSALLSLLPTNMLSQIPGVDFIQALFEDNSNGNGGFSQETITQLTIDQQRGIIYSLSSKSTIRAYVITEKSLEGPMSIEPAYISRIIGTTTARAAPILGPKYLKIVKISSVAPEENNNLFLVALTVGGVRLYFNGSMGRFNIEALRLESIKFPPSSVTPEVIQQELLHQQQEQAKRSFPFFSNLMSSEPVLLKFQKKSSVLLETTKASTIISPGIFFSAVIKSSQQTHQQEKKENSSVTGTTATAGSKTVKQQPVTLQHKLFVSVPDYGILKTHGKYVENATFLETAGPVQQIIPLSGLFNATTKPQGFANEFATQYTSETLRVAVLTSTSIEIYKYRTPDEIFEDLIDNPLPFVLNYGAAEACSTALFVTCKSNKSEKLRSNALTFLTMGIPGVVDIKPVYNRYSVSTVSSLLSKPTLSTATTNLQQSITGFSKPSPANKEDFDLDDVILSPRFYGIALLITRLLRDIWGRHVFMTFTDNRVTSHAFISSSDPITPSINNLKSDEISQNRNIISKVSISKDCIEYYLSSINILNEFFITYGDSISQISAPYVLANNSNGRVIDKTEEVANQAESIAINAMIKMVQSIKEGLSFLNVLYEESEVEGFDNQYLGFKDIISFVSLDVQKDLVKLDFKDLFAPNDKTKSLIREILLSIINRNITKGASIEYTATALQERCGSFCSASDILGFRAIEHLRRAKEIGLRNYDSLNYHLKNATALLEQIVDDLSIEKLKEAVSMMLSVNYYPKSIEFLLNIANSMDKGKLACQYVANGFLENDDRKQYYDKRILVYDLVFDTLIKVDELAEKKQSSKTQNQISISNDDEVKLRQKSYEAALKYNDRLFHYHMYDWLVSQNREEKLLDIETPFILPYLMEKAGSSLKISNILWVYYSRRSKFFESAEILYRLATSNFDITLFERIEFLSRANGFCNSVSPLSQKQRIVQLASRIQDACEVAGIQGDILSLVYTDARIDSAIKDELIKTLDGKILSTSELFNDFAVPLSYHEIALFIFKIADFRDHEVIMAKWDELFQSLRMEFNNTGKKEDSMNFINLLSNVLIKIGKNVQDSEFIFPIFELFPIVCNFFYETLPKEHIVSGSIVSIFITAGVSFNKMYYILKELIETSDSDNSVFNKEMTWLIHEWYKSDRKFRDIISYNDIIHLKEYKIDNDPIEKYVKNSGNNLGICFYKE

- binding result: binds
B1: GST-Pom152p^1-111 (domain or fragment, S. cerevisiae, UniProt P39685 1-111, looked up)
chain: MEHRYNVFNDTPRGNHWMGSSVSGSPRPSYSSRPNVNTTRRFQYSDDEPAEKIRPLRSRSFKSTESNISDEKSRISERDSKDRYINGDKKVDIYSLPLISTDVLEISKQRT
